# Experiments:
# [1] = target: Cry1Ca receptor protein(s) / binding site on Brush Border Membrane Vesicles (BBMV's) from Spodoptera frugiperda (Spodoptera frugiperda); test: homologous competition; displacement of 0.5 nM 125I-labeled Cry1Ca core toxin from S. frugiperda BBMV (150 ug/mL)
# [2] = target: Cry1Ca receptor protein(s) / binding site on Brush Border Membrane Vesicles (BBMV's) from Spodoptera frugiperda (Spodoptera frugiperda); test: heterologous competition; displacement of 0.5 nM 125I-labeled Cry1Ca core toxin from S. frugiperda BBMV (150 ug/mL)
Substance,IC50 [1] [nM],IC50 [2] [nM]
"Cry1Ca core toxin protein (non-radiolabeled, trypsin-activated) (from UniProt P0A376 28-618) (ligand)",5,–
"Cry1Fa core toxin protein (non-labeled, trypsin-activated) (from UniProt Q03746 28-605) (ligand)",–,> 300
